{"source": "patent US20060246004A1", "about": "(Genentech, published 2006)", "molecules": {"B1": {"name": "humanized 2H7.v166 (antibody, human IgG1, kappa, V domains shown)", "VH": "EVQLVESGGGLVQPGGSLRLSCAASGYTFTSYNMHWVRQAPGKGLEWVGAIYPGNGDTSYNQKFKGRFTISVDKSKNTLYLQMNSLRAEDTAVYYCARVVYYGGDWYFDVWGQGTLVTVSS", "VL": "DIQMTQSPSSLSASVGDRVTITCRASSSVSYMHWYQQKPGKAPKPLIYAPSNLASGVPSRFSGSGSGTDFTLTISSLQPEDFATYYCQQWSFNPPTFGQGTKVEIKR", "notes": "IgG1; changes vs v16"}, "B2": {"name": "humanized 2H7.v511 (antibody, human IgG1, kappa)", "heavy": "EVQLVESGGGLVQPGGSLRLSCAASGYTFTSYNMHWVRQAPGKGLEWVGAIYPGNGATSYNQKFKGRFTISVDKSKNTLYLQMNSLRAEDTAVYYCARVVYYSYRYWYFDVWGQGTLVTVSSASTKGPSVFPLAPSSKSTSGGTAALGCLVKDYFPEPVTVSWNSGALTSGVHTFPAVLQSSGLYSLSSVVTVPSSSLGTQTYICNVNHKPSNTKVDKKVEPKSCDKTHTCPPCPAPELLGGPSVFLFPPKPKDTLMISRTPEVTCVVVDVSHEDPEVKFNWYVDGVEVHNAKTKPREEQYNATYRVVSVLTVLHQDWLNGKEYKCKVSNAALPAPIAATISKAKGQPREPQVYTLPPSREEMTKNQVSLTCLVKGFYPSDIAVEWESNGQPENNYKTTPPVLDSDGSFFLYSKLTVDKSRWQQGNVFSCSVMHEALHNHYTQKSLSLSPGK", "light": "DIQMTQSPSSLSASVGDRVTITCRASSSVSYLHWYQQKPGKAPKPLIYAPSNLASGVPSRFSGSGSGTDFTLTISSLQPEDFATYYCQQWAFNPPTFGQGTKVEIKRTVAAPSVFIFPPSDEQLKSGTASVVCLLNNFYPREAKVQWKVDNALQSGNSQESVTEQDSKDSTYSLSSTLTLSKADYEKHKVYACEVTHQGLSSPVTKSFNRGEC", "notes": "Full-length IgG1; VH D56A, N100Y, S100aR; VL M32L, S92A; Fc S298A, K326A, E333A, K334A vs v16; also called hu2H7.v511"}}, "key": {"human FcRn (human) [1]": {"biological_target": "human FcRn (human) (UniProt P55899)", "sequence (P55899 24-297 limits assumed, chain 1 of 2)": "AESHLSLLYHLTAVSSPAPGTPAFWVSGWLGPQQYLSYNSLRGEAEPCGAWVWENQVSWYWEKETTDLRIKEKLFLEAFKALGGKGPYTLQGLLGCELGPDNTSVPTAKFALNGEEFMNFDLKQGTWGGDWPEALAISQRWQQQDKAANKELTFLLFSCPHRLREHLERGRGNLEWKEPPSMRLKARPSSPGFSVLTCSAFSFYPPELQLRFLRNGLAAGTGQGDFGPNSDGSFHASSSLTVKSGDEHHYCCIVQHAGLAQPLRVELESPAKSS", "sequence (chain, as listed by the source limits assumed, chain 2 of 2)": "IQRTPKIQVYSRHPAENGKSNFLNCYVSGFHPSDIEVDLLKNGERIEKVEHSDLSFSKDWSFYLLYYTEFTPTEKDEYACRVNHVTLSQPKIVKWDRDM", "experiment": "BIAcore, FcRn immobilised, pH 6.0"}, "human FcRn (human) [2]": {"biological_target": "human FcRn (human) (UniProt P55899)", "experiment": "BIAcore equilibrium analysis, FcRn immobilised on CM5 chip, pH 6.0"}, "rat FcRn (rat)": {"biological_target": "rat FcRn (rat) (UniProt P13599)", "sequence (P13599 23-298 limits assumed)": "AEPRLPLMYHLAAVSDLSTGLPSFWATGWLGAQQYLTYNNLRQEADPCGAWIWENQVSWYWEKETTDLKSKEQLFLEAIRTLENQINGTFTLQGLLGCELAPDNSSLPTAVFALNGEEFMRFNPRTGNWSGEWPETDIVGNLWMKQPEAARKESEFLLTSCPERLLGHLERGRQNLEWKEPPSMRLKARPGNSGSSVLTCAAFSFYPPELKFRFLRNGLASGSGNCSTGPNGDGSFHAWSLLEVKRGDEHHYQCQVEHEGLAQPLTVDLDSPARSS", "experiment": "BIAcore, FcRn immobilised"}, "[3]": {"biological_target": "T1, human CD20 on WIL2-S cells (human, UniProt P11836 1-297)", "T1 construct": "whole, on cells; also called CD20 antigen; hCD20", "T1 sequence (looked up)": "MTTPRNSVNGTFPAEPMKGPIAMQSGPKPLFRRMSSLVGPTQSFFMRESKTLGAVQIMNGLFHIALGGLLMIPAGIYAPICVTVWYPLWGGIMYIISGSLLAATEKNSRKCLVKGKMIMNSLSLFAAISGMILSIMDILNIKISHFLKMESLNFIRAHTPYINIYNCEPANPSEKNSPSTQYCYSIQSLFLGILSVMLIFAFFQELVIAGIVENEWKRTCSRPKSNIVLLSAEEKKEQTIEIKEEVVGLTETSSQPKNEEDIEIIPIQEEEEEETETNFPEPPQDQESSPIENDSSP", "experiment": "cell-based ELISA, WIL2-S cells; conc. 2H7.v16 / conc. variant"}, "[4]": {"biological_target": "T1, human CD20 on WIL2-S cells", "experiment": "competitive Scatchard analysis, WIL2-S cells; labelled competitor 125I-2H7.v138; ± standard error of fit"}, "[5]": {"biological_target": "T1, human CD20 on WIL2-S cells", "experiment": "competitive Scatchard analysis, WIL2-S cells; labelled 125I-2H7.v511; ± standard error of fit"}, "soluble CD20 (Genentech)": {"biological_target": "T2, soluble CD20 (Genentech) (UniProt P11836 1-297, limits assumed)", "T2 construct": "Coated on ELISA plates; also called solubilized CD20", "T2 sequence (looked up)": "T1 sequence (looked up)", "experiment": "ELISA on plate-coated soluble CD20, bound IgG detected with HRP anti-human Fab, OD450"}}, "data": [{"molecule": "soluble Fc variant N434A+E380A+T307A", "values": [{"measurement": "fold increase in affinity over wild-type Fc", "setting": "human FcRn (human) [1]", "result": 14, "unit": "fold"}]}, {"molecule": "soluble Fc variant N434F", "values": [{"measurement": "fold increase in affinity over wild-type Fc", "setting": "human FcRn (human) [1]", "result": 9, "unit": "fold"}]}, {"molecule": "parental hingeless Fc (wild-type)", "values": [{"measurement": "Kd", "setting": "human FcRn (human) [2]", "result": 700, "unit": "nM"}]}, {"molecule": "soluble Fc variant N434W", "values": [{"measurement": "fold better binding relative to wild-type Fc", "setting": "rat FcRn (rat)", "result": 10, "unit": "fold"}, {"measurement": "Kd", "setting": "human FcRn (human) [2]", "result": 4, "unit": "nM"}, {"measurement": "fold increase in affinity over wild-type Fc", "setting": "human FcRn (human) [1]", "result": 170, "unit": "fold"}]}, {"molecule": "soluble Fc variant N434A", "values": [{"measurement": "fold increase in affinity over wild-type Fc", "setting": "human FcRn (human) [1]", "result": 2.7, "unit": "fold"}]}, {"molecule": "B1", "values": [{"measurement": "Relative binding", "setting": "[3]", "result": 0.99, "unit": "ratio"}]}, {"molecule": "B2", "values": [{"measurement": "Kd", "setting": "[4]", "result": 0.11, "unit": "nM"}, {"measurement": "Kd", "setting": "[5]", "result": 0.45, "unit": "nM"}, {"measurement": "EC50 (read off the curve)", "setting": "soluble CD20 (Genentech)", "result": "~0.02", "unit": "µg/mL"}]}]}
